For five molecules, decrease of binding compared to human CXCR4, reactivity (MFI of chimeric receptor/MFI of wild type CXCR4 x 100%) and binding (+%) results are on record in patent US20110250165A1.

Sequences and labels used below:
B1: 6R-Fc (Fc fusion, part only; not given: VH-VL linker, hinge and IgG1 Fc, not shown: another chain or arm of the molecule; a dimerising Fc or GST; small tags and cut ends)
VH: QVQLQQSGPGLVKPSQTLSLTCAVSGDSVSSNFVAWNWIRQSPSRGLEWLGRTYYRSRWYNDYAVSVQSRIRVTPDTSKNQFSLHLDSVTPEDTAVYYCARGQHSGFDFWGQGTLVTVSS
VL: QSVLTQPPSVSKGLRQTATLTCTGNSNNVGNQGAAWLQQHQGHPPKLLSYRNNNRPSGISERFSASRSGNTASLTITGLQPEDEADYYCSAWDNRLKTYVFGTGGKVTVL
B2: 20-Fc (Fc fusion, part only; not given: linker and human IgG1 hinge-Fc, not shown: another chain or arm of the molecule; a dimerising Fc or GST; small tags and cut ends)
VH: EVQLVQSGGGLVQPGGSLRLSCAASGFTFSSYAMSWVRQAPGKGLEWVANIKQDGSEKYYVDSVKGRFTISRDNAKNSLYLQMNSLRAEDTAVYYCARDQVSGITIFGGKWRSPDVWGQGTTVTVSS
VL: SSELTQDPAVSVALGQTVRITCQGDSLRSYYASWYQQKPGQAPVLVIYGKNNRPSGIPDRFSGSKSHNTAYLTITGAQAEDEADYFCNSRSGSQRVFGGGTKLTVL
B3: 2N-Fc (Fc fusion, part only; not given: linker and human IgG1 hinge-Fc, not shown: another chain or arm of the molecule; a dimerising Fc or GST; small tags and cut ends)
VH: EVQLVESGGGVVQPGRSLRLSCAASGFTFSSYGMHWVRQAPGKGLEWVAVISYDGSNKYYADSVKGRFTISRDNSKNTLYLQVSSLRAEDTAVYYCVRDLVAAAGTAFDIWGQGTTVTVSS
VL: QPVLTQPRSVSGSPGQSVTISCTGTISDVGGHNFVSWYQQNPGKAPKLIIFEVTKRPAGVPDRFSGSKSGNTASLTVSGLQAEDEGEYYCSSYGGSNDVIFGGGTKLSVL
B4: 33-Fc (Fc fusion, part only; not given: linker and human IgG1 hinge-Fc, not shown: another chain or arm of the molecule; a dimerising Fc or GST; small tags and cut ends)
VH: QVTLKESGGGVVQPGRSLRLSCAASGFTFTNYGLHWVRQAPGKGLEWVAVISHDGTKKYYADSVKGRFTISRDSSENTLYLQMNSLRPEDSALYYCARDGGYCSGGRCYSYGMDVWGQGTTVTVSS
VL: QSVLTQPPSASGTPGQRVTISCSGSRSNIGSNTVNWYQQLPGTAPKLLIYTNNQRPSGVPDRFSGSKSGTSASLAITGLQAEDEADYYCLSFDSSLTSYVFGTGTKVTVL
B5: 33-IgG1 (antibody, V domains shown)
VH: B4 VH
VL: QSVLTQPPSASGTPGQRVTISCSGSRSNIGSNTVNWYQQLPGTAPKLLIYTNNQRPSGVPDRFSGSKSGTSASLAITGLQAEDEADYYCLSFDSSLTSYVFGTGTKVTVLG

Chain of rhesus macaque monkey CXCR4 (rhesus macaque) (P79394 whole entry): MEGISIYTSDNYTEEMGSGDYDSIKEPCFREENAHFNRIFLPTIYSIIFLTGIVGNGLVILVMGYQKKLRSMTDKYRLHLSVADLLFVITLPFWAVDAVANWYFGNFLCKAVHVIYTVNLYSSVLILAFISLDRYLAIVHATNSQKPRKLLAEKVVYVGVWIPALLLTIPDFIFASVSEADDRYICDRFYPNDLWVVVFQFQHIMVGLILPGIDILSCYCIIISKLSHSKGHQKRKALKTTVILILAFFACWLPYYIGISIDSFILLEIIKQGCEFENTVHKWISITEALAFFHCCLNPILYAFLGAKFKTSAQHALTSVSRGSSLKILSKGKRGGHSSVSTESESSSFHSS
Chain of CXCR2 (P25025 whole entry): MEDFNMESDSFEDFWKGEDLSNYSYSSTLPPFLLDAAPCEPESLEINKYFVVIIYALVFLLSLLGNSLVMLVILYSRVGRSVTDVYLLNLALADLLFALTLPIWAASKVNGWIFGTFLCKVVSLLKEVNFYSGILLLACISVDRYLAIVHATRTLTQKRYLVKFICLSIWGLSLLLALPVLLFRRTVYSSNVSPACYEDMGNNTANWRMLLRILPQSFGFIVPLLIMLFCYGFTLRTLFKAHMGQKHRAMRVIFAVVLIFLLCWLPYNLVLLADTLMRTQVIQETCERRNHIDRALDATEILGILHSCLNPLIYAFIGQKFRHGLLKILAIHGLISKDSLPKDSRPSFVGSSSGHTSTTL
Chain of mouse CXCR4 (mouse) (P70658 whole entry): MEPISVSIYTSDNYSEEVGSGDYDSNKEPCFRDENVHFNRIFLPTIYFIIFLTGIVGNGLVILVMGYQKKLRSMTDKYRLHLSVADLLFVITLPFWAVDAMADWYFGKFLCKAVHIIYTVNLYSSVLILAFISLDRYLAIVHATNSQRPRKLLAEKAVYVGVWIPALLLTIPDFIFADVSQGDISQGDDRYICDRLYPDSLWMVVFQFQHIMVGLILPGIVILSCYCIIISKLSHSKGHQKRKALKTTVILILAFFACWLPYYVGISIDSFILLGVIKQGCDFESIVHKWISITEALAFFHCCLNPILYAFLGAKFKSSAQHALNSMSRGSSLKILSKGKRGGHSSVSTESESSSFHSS

One assay has as its target rhesus macaque monkey CXCR4 (rhesus macaque) (UniProt P79394). Put plainly: flow cytometry, scFv-Fc on transfected 293T cells. Background: A flow cytometer gives signals particle by particle.
On to B1, for which the decrease of binding compared to human CXCR4 was found to be 60%.

A further assay has the same target. Put plainly: flow cytometry, scFv-Fc on transfected 293T cells, FITC anti-human IgG.
For the molecule B2, the reactivity (MFI of chimeric receptor/MFI of wild type CXCR4 x 100%) stood at 77.5%.
For the molecule B1, the reactivity (MFI of chimeric receptor/MFI of wild type CXCR4 x 100%) turned out to be 41.9%.
On the same count and under the same terms, the result for B3 reads 98.3%.
The same measure, in the same setting: for B4 the value was 103%.

For another assay, the target named is Δ-X4. The description is as above.
Take B2: the reactivity (MFI of chimeric receptor/MFI of wild type CXCR4 x 100%) is 9.6%.
B1: the reactivity (MFI of chimeric receptor/MFI of wild type CXCR4 x 100%) was 16.6%.
Regarding B3, the reactivity (MFI of chimeric receptor/MFI of wild type CXCR4 x 100%) was -1.6%.
For B4, the reactivity (MFI of chimeric receptor/MFI of wild type CXCR4 x 100%) was determined as 3.1%.

A further assay deals with 2444b CXCR2/CXCR4 chimera (human) (UniProt P25025). The description is as above.
Chain of 2444b CXCR2/CXCR4 chimera (human) (P25025 other isoform, or with tags, fused parts or gaps mutant limits assumed): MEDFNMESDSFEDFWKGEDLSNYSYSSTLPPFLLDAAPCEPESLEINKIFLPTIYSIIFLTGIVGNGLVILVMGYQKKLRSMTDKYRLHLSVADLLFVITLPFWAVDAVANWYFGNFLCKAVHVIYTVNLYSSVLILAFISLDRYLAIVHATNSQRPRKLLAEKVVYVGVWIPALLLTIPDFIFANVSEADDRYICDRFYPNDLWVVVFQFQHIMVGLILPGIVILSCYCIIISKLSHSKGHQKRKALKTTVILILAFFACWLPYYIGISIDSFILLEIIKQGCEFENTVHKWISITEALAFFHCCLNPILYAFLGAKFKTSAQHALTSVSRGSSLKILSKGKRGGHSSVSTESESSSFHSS
With B2, the reactivity (MFI of chimeric receptor/MFI of wild type CXCR4 x 100%) was determined as 12.9%.
The same measure, in the same setting: the result for B1 reads 4.7%; that for B3, 8.3%; that for B4, 0.7%.

In the next assay the target is 2442 CXCR2/CXCR4 chimera. The description is as above.
B2: the reactivity (MFI of chimeric receptor/MFI of wild type CXCR4 x 100%) turned out to be 7.6%.
On the same count and under the same terms, for B1 the value was 3.7%; for B3, 4.5%.
The same measure, in the same setting: the result for B4 reads 0.7%.

Another assay addresses 4442 CXCR2/CXCR4 chimera. Described as above.
On to B2, for which the reactivity (MFI of chimeric receptor/MFI of wild type CXCR4 x 100%) turned out to be 27.9%.
The same measure, in the same setting: for B1 the value was 1.4%; for B3, 61%.
The same measure, in the same setting: for B4 the value was 15.5%.

A further assay concerns the target mouse CXCR4 (mouse) (UniProt P70658). The assay is described as above.
With B3, the reactivity (MFI of chimeric receptor/MFI of wild type CXCR4 x 100%) turned out to be 3.6%.
Consider B4, for which the reactivity (MFI of chimeric receptor/MFI of wild type CXCR4 x 100%) is 2.1%.

A further assay concerns the target CXCR2 (UniProt P25025). The description is as above.
For the molecule B2, the reactivity (MFI of chimeric receptor/MFI of wild type CXCR4 x 100%) came out at 4.1%.
The same measure, in the same setting: the result for B3 reads 4.7%; that for B4, -0.52%.

Another assay deals with 2242 CXCR2/CXCR4 chimera. The description is as above.
For the molecule B2, the reactivity (MFI of chimeric receptor/MFI of wild type CXCR4 x 100%) stood at 11.6%.
Still for that read-out and setting: for B1 the value was 1%.
The same measure, in the same setting: for B3 the value was 1.2%; for B4, 0.3%.

A further assay concerns the target human CXCR4 (wild type) (human) (UniProt P61073). Described as above.
As for B2, the reactivity (MFI of chimeric receptor/MFI of wild type CXCR4 x 100%) was determined as 100%.
Regarding B1, the reactivity (MFI of chimeric receptor/MFI of wild type CXCR4 x 100%) was determined as 100%.
Still for that read-out and setting: for B3 the value was 100%; for B4, 100%.

The target in a further assay is 2444b CXCR2/CXCR4 chimera (human) (UniProt P25025). Briefly: FACS on 293T cells expressing CXCR4 variants.
Turning to B1, the binding (+%) amounted to 2.2%.
The same measure, in the same setting: the result for B3 reads -6.2%.

A further assay has as its target 2442 CXCR2/CXCR4 chimera. Briefly: FACS on 293T cells expressing CXCR4 variants.
Regarding B1, the binding (+%) was -3.4%.
As to B3, the binding (+%) is -1.2%.

In a further assay the target is ΔN25-CXCR4 (human) (UniProt P61073). Put plainly: FACS on 293T cells expressing CXCR4 variants.
On to B1, for which the binding (+%) came out at 60%.
As to B3, the binding (+%) was -6.3%.
In the case of B5, the binding (+%) was found to be 13%.

Another assay addresses 4442 CXCR2/CXCR4 chimera. Briefly: FACS on 293T cells expressing CXCR4 variants.
On to B1, for which the binding (+%) is -0.4%.
B3: the binding (+%) was 89.1%.

Another assay has as its target ΔN31-CXCR4 (human) (UniProt P61073). Briefly: FACS on 293T cells expressing CXCR4 variants.
Turning to B1, the binding (+%) was 12.8%.
As for B3, the binding (+%) is -7%.
As to B5, the binding (+%) stood at 9%.

For another assay, the target named is human CXCR4 (wild type) (human) (UniProt P61073). Briefly: FACS on 293T cells expressing CXCR4 variants.
Chain of human CXCR4 (wild type) (human) (P61073 whole entry): as the sequence (P79394 whole entry) above, with I24M, H35N, R38K, K146R, S176N, D214V counted along it
In the case of B1, the binding (+%) is 100%.
As for B3, the binding (+%) was 100%.
